# Measurements as given in article PMC5033645 (Nature structural & molecular biology, 2016).
# B1: SV2B: SV2B-N516A (protein)
# parent chain: MDDYRYRDNYEGYAPNDGYYRGNEQNPEEDAQSDVTEGHDEEDEIYEGEYQGIPHPDDVKSKQTKMAPSRADGLRGQADLMAERMEDEEQLAHQYETIIDECGHGRFQWTLFFVLVLALMADGVEVFVVSFALPSAEKDMCLSSSKKGMLGLIVYLGMMAGAFILGGLADKLGRKKVLSMSLAINASFASLSSFVQGYGAFLFCRLISGIGIGGSLPIVFAYFSEFLSREKRGEHLSWLGIFWMTGGIYASAMAWSIIPHYGWGFSMGTNYHFHSWRVFVIVCALPATVSMVALKFMPESPRFLLEMGKHDEAWMILKQVHDTNMRAKGTPEKVFTVSHIKTPKQMDEFIEIQSSTGTWYQRWLVRFMTIFKQVWDNALYCVMGPYRMNTLILAVVWFTMALSYYGLTVWFPDMIRYFQDEEYKSKMKVFFGEHVHGATINFTMENQIHQHGKLVNDKFIKMYFKHVLFEDTFFDKCYFEDVTSTDTYFKNCTIESTTFYNTDLYKHKFIDCRFINSTFLEQKEGCHMDFEEDNDFLIYLVSFLGSLSVLPGNIISALLMDRIGRLKMIGGSMLISAVCCFFLFFGNSESAMIGWQCLFCGTSIAAWNALDVITVELYPTNQRATAFGILNGLCKLGAILGNTIFASFVGITKVVPILLAAASLVGGGLVALRLPETREQVLM
# B2: SV2A: SV2A-N573A (protein)
# parent chain: MEEGFRDRAAFIRGAKDIAKEVKKHAAKKVVKGLDRVQDEYSRRSYSRFEEEEDDDDFPAPADGYYRGEGAQDEEEGGASSDATEGHDEDDEIYEGEYQGIPRAESGGKGERMADGAPLAGVRGGLSDGEGPPGGRGEAQRRKDREELAQQYETILRECGHGRFQWTLYFVLGLALMADGVEVFVVGFVLPSAEKDMCLSDSNKGMLGLIVYLGMMVGAFLWGGLADRLGRRQCLLISLSVNSVFAFFSSFVQGYGTFLFCRLLSGVGIGGSIPIVFSYFSEFLAQEKRGEHLSWLCMFWMIGGVYAAAMAWAIIPHYGWSFQMGSAYQFHSWRVFVLVCAFPSVFAIGALTTQPESPRFFLENGKHDEAWMVLKQVHDTNMRAKGHPERVFSVTHIKTIHQEDELIEIQSDTGTWYQRWGVRALSLGGQVWGNFLSCFSPEYRRITLMMMGVWFTMSFSYYGLTVWFPDMIRHLQAVDYAARTKVFPGERVEHVTFNFTLENQIHRGGQYFNDKFIGLRLKSVSFEDSLFEECYFEDVTSSNTFFRNCTFINTVFYNTDLFEYKFVNSRLVNSTFLHNKEGCPLDVTGTGEGAYMVYFVSFLGTLAVLPGNIVSALLMDKIGRLRMLAGSSVLSCVSCFFLSFGNSESAMIALLCLFGGVSIASWNALDVLTVELYPSDKRTTAFGFLNALCKLAAVLGISIFTSFVGITKAAPILFASAALALGSSLALKLPETRGQVLQ
# B3: SUMO-bSV2C: human SV2C-L4 (V473-T567) with 6xHis/SUMO tag, expressed in E. coli (domain or fragment)
# chain: VERDKYANFTINFTMENQIHTGMEYDNGRFIGVKFKSVTFKDSVFKSCTFEDVTSVNTYFKNCTFIDTVFDNTDFEPYKFIDSEFKNCSFFHNKT
# B4: SV2C (full length, in neurons): SV2C-N559A (protein)
# parent chain: MEDSYKDRTSLMKGAKDIAKEVKKQTVKKVNQAVDRAQDEYTQRSYSRFQDEDDDDDYYPPGETYSGEANDDEGSSEATEGHDEEDEIYEGEYQGIPSTNQGKDSIVSVGQPKGDEYKDRRELESERRADEEELAQQYELIIQECGHGRFQWALFFVLGMALMADGVEVFVVGFVLPSAETDLCIPNSGSGWLGSIVYLGMMVGAFFWGGLADKVGRKQSLLICMSVNGFFAFLSSFVQGYGFFLLCRLLSGFGIGGAIPTVFSYFAEVLAREKRGEHLSWLCMFWMIGGIYASAMAWAIIPHYGWSFSMGSAYQFHSWRVFVIVCALPCVSSVVALTFMPESPRFLLEVGKHDEAWMILKLIHDTNMRARGQPEKVFTVNKIKTPKQIDELIEIESDTGTWYRRCFVRIRTELYGIWLTFMRCFNYPVRENTIKLTIVWFTLSFGYYGLSVWFPDVIKHLQSDEYALLTRNVQKDKYANFSINFTMENQVHTGMEYDNGRFLGVKFKSVTFKDSVFKSCTFDDVTSVNTYFKNCTFIDTLFENTDFEPYKFIDSEFQNCSFLHNKTGCQITFDDDYSAYWIYFVNFLGTLAVLPGNIVSALLMDRIGRLTMLGGSMVLSGISCFFLWFGTSESMMIGMLCLYNGLTISAWNSLDVVTVELYPTDRRATGFGFLNALCKAAAVLGNLIFGSLVSITKAIPILLASTVLVCGGLVGLRLPDTRTQVLM
# Assays:
# [1] = pan-SV2 immunoblot of neuron lysates; conditions: glycan lost
# [2] = target: BoNT/A1 receptor-binding domain (HCA), wild type (UniProt P0DPI0 872-1296); assay: SPR
binder,measurement,setting,value
B1,expression_or_secretion,[1]; control: WT SV2B,decreases
B2,expression_or_secretion,[1]; control: WT SV2A,no change
B3,Kd,[2],~86 nM
same,koff,[2],0.11 s⁻¹
B4,expression_or_secretion,[1]; control: WT SV2C,decreases
